Patent US20250163163A1 (Chugai, published 2025)

T1: human IL-31R (IL-31 receptor) expressed on BaF cells (BaF/hIL-31R cells) (human, UniProt Q8NI17 20-732)
T1 sequence (looked up): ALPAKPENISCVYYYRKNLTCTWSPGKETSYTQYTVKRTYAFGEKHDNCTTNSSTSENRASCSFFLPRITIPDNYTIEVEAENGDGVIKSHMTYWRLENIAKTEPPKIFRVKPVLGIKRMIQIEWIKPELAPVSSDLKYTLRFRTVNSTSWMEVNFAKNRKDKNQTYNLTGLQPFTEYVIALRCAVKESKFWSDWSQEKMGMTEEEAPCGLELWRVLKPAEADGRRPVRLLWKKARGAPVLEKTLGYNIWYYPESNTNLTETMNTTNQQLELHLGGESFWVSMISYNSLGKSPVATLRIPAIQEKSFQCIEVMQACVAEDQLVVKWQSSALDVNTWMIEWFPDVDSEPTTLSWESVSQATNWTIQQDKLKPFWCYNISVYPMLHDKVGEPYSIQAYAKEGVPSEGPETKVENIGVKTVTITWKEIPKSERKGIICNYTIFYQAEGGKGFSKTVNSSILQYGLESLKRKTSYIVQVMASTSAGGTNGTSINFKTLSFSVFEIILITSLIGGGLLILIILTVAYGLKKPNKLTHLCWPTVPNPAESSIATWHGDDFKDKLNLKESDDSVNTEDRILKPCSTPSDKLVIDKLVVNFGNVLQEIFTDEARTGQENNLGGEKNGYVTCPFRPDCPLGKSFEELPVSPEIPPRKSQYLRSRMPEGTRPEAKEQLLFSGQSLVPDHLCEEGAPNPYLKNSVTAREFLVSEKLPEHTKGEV

B1: nemolizumab AE-HPLC fraction, peak b8 (Pre-Region 2), predominantly the succinimide form (Asu103 variant) (antibody, V domains shown)
VH: QVQLVQSGAEVKKPGASVKVSCKASGYTFTGYIMNWVRQAPGQGLEWMGLINPYNGGTDYNPQFQDRVTITADKSTSTAYMELSSLRSEDTAVYYCARDGYDDGPYTLETWGQGTLVTVSS
VL: DIQMTQSPSSLSASVGDRVTITCQASEDIYSFVAWYQQKPGKAPKLLIYNAQTEAQGVPSRFSGSGSGTDFTLTISSLQPEDFATYYCQHHYDSPLTFGGGTKVEIKR
modifications: Asp103 (Kabat numbering position 99) altered to a succinimide residue (Asu103) at a ratio of 54.0% on peptide basis; Asp99 (Kabat 95) to succinimide 2.7%
B2: nemolizumab AE-HPLC fraction, peak a6 (Post-Region) (antibody, V domains shown)
VH: QVQLVQSGAEVKKPGASVKVSCKASGYTFTGYIMNWVRQAPGQGLEWMGLINPYNGGTDYNPQFQDRVTITADKSTSTAYMELSSLRSEDTAVYYCARDGYDDGPYTLETWGQGTLVTVSS
VL: DIQMTQSPSSLSASVGDRVTITCQASEDIYSFVAWYQQKPGKAPKLLIYNAQTEAQGVPSRFSGSGSGTDFTLTISSLQPEDFATYYCQHHYDSPLTFGGGTKVEIKR
modifications: Deamidation at Asn55 in the CDRs of the heavy chain, 14.9%
B3: nemolizumab AE-HPLC fraction, peaks a2 + a3 (Post-Region) (antibody, V domains shown)
VH: QVQLVQSGAEVKKPGASVKVSCKASGYTFTGYIMNWVRQAPGQGLEWMGLINPYNGGTDYNPQFQDRVTITADKSTSTAYMELSSLRSEDTAVYYCARDGYDDGPYTLETWGQGTLVTVSS
VL: DIQMTQSPSSLSASVGDRVTITCQASEDIYSFVAWYQQKPGKAPKLLIYNAQTEAQGVPSRFSGSGSGTDFTLTISSLQPEDFATYYCQHHYDSPLTFGGGTKVEIKR
B4: nemolizumab AE-HPLC fraction, peak a5 (Post-Region) (antibody, V domains shown)
VH: QVQLVQSGAEVKKPGASVKVSCKASGYTFTGYIMNWVRQAPGQGLEWMGLINPYNGGTDYNPQFQDRVTITADKSTSTAYMELSSLRSEDTAVYYCARDGYDDGPYTLETWGQGTLVTVSS
VL: DIQMTQSPSSLSASVGDRVTITCQASEDIYSFVAWYQQKPGKAPKLLIYNAQTEAQGVPSRFSGSGSGTDFTLTISSLQPEDFATYYCQHHYDSPLTFGGGTKVEIKR
modifications: Deamidation at Asn55 in HC; ratio not given
B5: nemolizumab AE-HPLC fraction, peaks b2 + b3 (Pre-Region 1) (antibody, V domains shown)
VH: QVQLVQSGAEVKKPGASVKVSCKASGYTFTGYIMNWVRQAPGQGLEWMGLINPYNGGTDYNPQFQDRVTITADKSTSTAYMELSSLRSEDTAVYYCARDGYDDGPYTLETWGQGTLVTVSS
VL: DIQMTQSPSSLSASVGDRVTITCQASEDIYSFVAWYQQKPGKAPKLLIYNAQTEAQGVPSRFSGSGSGTDFTLTISSLQPEDFATYYCQHHYDSPLTFGGGTKVEIKR
modifications: Asu103 in HC; ratio not given
B6: nemolizumab AE-HPLC fraction, peaks b4 + b5 + b6 + b7 (Pre-Region 2) (antibody, V domains shown)
VH: QVQLVQSGAEVKKPGASVKVSCKASGYTFTGYIMNWVRQAPGQGLEWMGLINPYNGGTDYNPQFQDRVTITADKSTSTAYMELSSLRSEDTAVYYCARDGYDDGPYTLETWGQGTLVTVSS
VL: DIQMTQSPSSLSASVGDRVTITCQASEDIYSFVAWYQQKPGKAPKLLIYNAQTEAQGVPSRFSGSGSGTDFTLTISSLQPEDFATYYCQHHYDSPLTFGGGTKVEIKR
modifications: Asu103 in HC (succinimide at Asp103); ratio not given
B7: nemolizumab AE-HPLC fraction, peak b1 (Pre-Region 1), isoAsp form (antibody, V domains shown)
VH: QVQLVQSGAEVKKPGASVKVSCKASGYTFTGYIMNWVRQAPGQGLEWMGLINPYNGGTDYNPQFQDRVTITADKSTSTAYMELSSLRSEDTAVYYCARDGYDDGPYTLETWGQGTLVTVSS
VL: DIQMTQSPSSLSASVGDRVTITCQASEDIYSFVAWYQQKPGKAPKLLIYNAQTEAQGVPSRFSGSGSGTDFTLTISSLQPEDFATYYCQHHYDSPLTFGGGTKVEIKR
modifications: IsoAsp in CDR (Asp99/102/103) in HC, site not identified: two isoAsp residue-containing peptides at 11.6% and 2.7%; Asu99 1.1%, Asu102 0.2%, Asu103 4.7%
B8: nemolizumab AE-HPLC fraction, peak a1 (Post-Region) (antibody, V domains shown)
VH: QVQLVQSGAEVKKPGASVKVSCKASGYTFTGYIMNWVRQAPGQGLEWMGLINPYNGGTDYNPQFQDRVTITADKSTSTAYMELSSLRSEDTAVYYCARDGYDDGPYTLETWGQGTLVTVSS
VL: DIQMTQSPSSLSASVGDRVTITCQASEDIYSFVAWYQQKPGKAPKLLIYNAQTEAQGVPSRFSGSGSGTDFTLTISSLQPEDFATYYCQHHYDSPLTFGGGTKVEIKR
modifications: Deamidation at Asn384 in HC; ratio not given
B9: nemolizumab AE-HPLC fraction, peak a4 (Post-Region) (antibody, V domains shown)
VH: QVQLVQSGAEVKKPGASVKVSCKASGYTFTGYIMNWVRQAPGQGLEWMGLINPYNGGTDYNPQFQDRVTITADKSTSTAYMELSSLRSEDTAVYYCARDGYDDGPYTLETWGQGTLVTVSS
VL: DIQMTQSPSSLSASVGDRVTITCQASEDIYSFVAWYQQKPGKAPKLLIYNAQTEAQGVPSRFSGSGSGTDFTLTISSLQPEDFATYYCQHHYDSPLTFGGGTKVEIKR

These binders were tested against T1, human IL-31R (IL-31 receptor) expressed … (assay: cell-based or functional assay).

Row | Binder | Relative biological activity compared to CIM331 reference material (%); inhibition of IL-31-dependent proliferation of BaF/hIL-31R cells | Relative biological activity compared to main peak (%); inhibition of IL-31-dependent proliferation of BaF/hIL-31R cells
1 | B1 | 23% | 21%
2 | B2 | 94% | 85%
3 | B3 | 110% | 100%
4 | B4 | 88% | 79%
5 | B5 | 73% | 66%
6 | B6 | 89% | 80%
7 | B7 | 45% | 41%
8 | B8 | 110% | 100%
9 | B9 | 90% | 82%
